Assay results taken from patent US20240401063, “Aptamer for DKK1 and Use Thereof” (APTACURE THERAPEUTICS LIMITED, published 2024).

What was measured:
[1] = biological target: T1, DKK1 (Dickkopf-1), full-length (Homo sapiens, UniProt O94907 SEQ:32-266); assay: ELONA; not significantly above blank at 1 uM; used as negative control; conditions: tags: His6; label: biotin
T1 sequence: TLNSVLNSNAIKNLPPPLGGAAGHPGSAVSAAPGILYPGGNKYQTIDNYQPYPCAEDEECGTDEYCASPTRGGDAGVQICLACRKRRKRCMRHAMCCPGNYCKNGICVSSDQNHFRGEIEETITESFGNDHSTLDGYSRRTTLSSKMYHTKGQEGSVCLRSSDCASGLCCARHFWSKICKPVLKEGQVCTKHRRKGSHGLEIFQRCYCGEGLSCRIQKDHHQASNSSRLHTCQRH
Protocol: (§1) Enzyme linked oligonucleotide assay (ELONA): 160 ng DKK1 per well and negative target were coated in a 96-well microtiter plate by incubating at 4° C. overnight through hydrophobic interaction. Non-binding sites in wells were blocked with bull serum albumin (BSA) at room temperature for 1 hour, and then washed with DNA-binding buffer 4 times for 5 minutes each. The biotinylated aptamer candidates/RS with an appropriate concentration were added to each well and incubated at room temperature for 45 minutes with continuous gentle shaking. After binding, the plate was washed with washing buffer 4 times for 5 minutes each to remove non-specific and weakly binding sequences. 100 μl streptavidin-horseradish peroxidase (HRP) (1:10000 dilute into PBST+0.1% BSA) was added to each well, and incubated for 30 minutes, and washed for 4 times with the binding buffer. 50 μl 3,3′,5,5′-tetramethylbenzidine (TMB) as a HRP substrate was added to each well and incubated for 20 minutes. […] The absorbance at 450 nm was measured with a microplate reader (Molecular Device i3x). Data was analyzed with Origin software. A binding curve was generated and KD was calculated with a non-linear curve fitting model logistic.
The specificity of 1 μM of each adapter/RS against DKK-1 was determined for 20 potential sequences with the highest occurrence rate (Table 4) by ELONA and the absorbance at 450 nm was detected.

[2] = biological target: T1, DKK1 (Dickkopf-1), full-length; assay: ELONA; highest affinity of the four truncations; Kd only in FIG. 9; conditions: tags: His6; label: biotin
Protocol: Enzyme linked oligonucleotide assay (ELONA): 160 ng DKK1 per well and negative target were coated in a 96-well microtiter plate by incubating at 4° C. overnight through hydrophobic interaction. Non-binding sites in wells were blocked with bull serum albumin (BSA) at room temperature for 1 hour, and then washed with DNA-binding buffer 4 times for 5 minutes each. The biotinylated aptamer candidates/RS with an appropriate concentration were added to each well and incubated at room temperature for 45 minutes with continuous gentle shaking. After binding, the plate was washed with washing buffer 4 times for 5 minutes each to remove non-specific and weakly binding sequences. 100 μl streptavidin-horseradish peroxidase (HRP) (1:10000 dilute into PBST+0.1% BSA) was added to each well, and incubated for 30 minutes, and washed for 4 times with the binding buffer. 50 μl 3,3′,5,5′-tetramethylbenzidine (TMB) as a HRP substrate was added to each well and incubated for 20 minutes. 50 μl 2M H₂SO₄ was added to terminate the reaction. The absorbance at 450 nm was measured with a microplate reader (Molecular Device i3x). Data was analyzed with Origin software. A binding curve was generated and KD was calculated with a non-linear curve fitting model logistic. […]

[3] = biological target: T2, DKK1 expressed in Wnt reporter cells (UniProt O94907 SEQ:32-266); assay: cell_activity; TOPFlash Wnt3a luciferase in HEK293T; conditions: tags: DKK1 construct co-transfected in HEK293T
T2 sequence: T1 sequence
Protocol: TCF-wnt induced luciferase activity assay: HEK293T cells were co-transfected with corresponding plasmids, including TOPFlash, FOPFlash, Wnt3a, and DKK1 constructs. An equal amount of the carrier was used for each time of transfection. The culture medium was replaced 24 hours after the transfection. The cells were treated with conditional culture medium containing 1 μM corresponding aptamer candidates. In order to determine inhibition effect, the cells are treated with aptamer candidates having gradient concentrations. 24 hours after treatment, the cells were lysed with 100 μl of lysis buffer, and 20 μl was taken for analysis. It was calculated according to the protocol (dual luciferase reporter gene assay, Promega).

[4] = biological target: T1, DKK1 (Dickkopf-1), full-length; assay: ELONA; 100 nM and 1 nM: no or slight difference from aptdkk5; conditions: tags: His6; label: biotin
Protocol: as §1, with “sequences.” for “sequences. 100 μl streptavidin-horseradish peroxidase (HRP) (1:10000 dilute into PBST+0.1% BSA) was added to each well, and incubated for 30 minutes, and washed for 4 times with the binding buffer. 50 μl 3,3′,5,5′-tetramethylbenzidine (TMB) as a HRP substrate was added to each well and incubated for 20 minutes.”
The specificity of 100 nM/i nM of each aptamer/RS against DKK-1 was determined for 24 truncated sequences of aptdkk5 and original aptdkk5 (Table 6) by ELONA and the absorbance at 450 nm was detected. When the concentration was 100 nM, there was no significant difference or slight difference in the absorbance between apt5-1-38, apt5-1-35, apt5-1-62, or apt5-1-59 and the original aptdkk5 (FIG. 8a). […]

[5] = biological target: T1, DKK1 (Dickkopf-1), full-length; assay: ELONA; high affinity; Kd only in FIG. 9; conditions: tags: His6; label: biotin
Protocol: (§2) Enzyme linked oligonucleotide assay (ELONA): 160 ng DKK1 per well and negative target were coated in a 96-well microtiter plate by incubating at 4° C. overnight through hydrophobic interaction. Non-binding sites in wells were blocked with bull serum albumin (BSA) at room temperature for 1 hour, and then washed with DNA-binding buffer 4 times for 5 minutes each. The biotinylated aptamer candidates/RS with an appropriate concentration were added to each well and incubated at room temperature for 45 minutes with continuous gentle shaking. After binding, the plate was washed with washing buffer 4 times for 5 minutes each to remove non-specific and weakly binding sequences. 100 μl streptavidin-horseradish peroxidase (HRP) (1:10000 dilute into PBST+0.1% BSA) was added to each well, and incubated for 30 minutes, and washed for 4 times with the binding buffer. 50 μl 3,3′,5,5′-tetramethylbenzidine (TMB) as a HRP substrate was added to each well and incubated for 20 minutes. 50 μl 2M H₂SO₄ was added to terminate the reaction. The absorbance at 450 nm was measured with a microplate reader (Molecular Device i3x). Data was analyzed with Origin software. A binding curve was generated and KD was calculated with a non-linear curve fitting model logistic.
Aptamer candidates with significant specificity (apt5-1-44, apt5-1-41, apt5-1-38, and apt5-1-35) and the original aptdkk5 as a positive control were used to determine the binding affinity against DKK1. The original aptdkk5 and apt5-1-44 had concentrations of (0.15625 nM, 0.625 nM, 1.25 nM, 2.5 nM, 5 nM, 10 nM, 50 nM, and 100 nM), apt5-1-41, apt5-1-38, and apt5-1-35 had concentrations of (0, 1.5625 nM, 3.125 nM, 6.25 nM, 12.5 nM, 25 nM, and 50 nM).

[6] = biological target: T1, DKK1 (Dickkopf-1), full-length; assay: ELONA; room temperature; conditions: tags: His6; label: biotin; G-rich, predicted G4
Protocol: as §2
Aptamer candidates with significant specificity and Candidate 3 as a negative control were used to determine the binding affinity against DKK1. Candidates 1, 2, 4, and 14 had concentrations of (0, 62.5 nM, 125 nM, 250 nM, 500 nM, 1000 nM, 2000 nM, and 4000 nM), Candidates 7, 10, 15, and 16 had concentrations of (0, 23.44 nM, 46.86 nM, 93.75 nM, 187.5 nM, 375 nM, 750 nM, and 1500 nM), and other candidates had concentrations of (0, 0.18 nM, 0.74 nM, 2.96 nM, 11.84 nM, 47.35 nM, 189.39 nM, and 757.58 nM). […] Six candidates (aptdkk-5, 13, 20, 19, 6, and 1) were rich in G. The other five sequences (aptdkk-9, 18, 12, 17, and 8) were not rich in G.

[7] = biological target: T1, DKK1 (Dickkopf-1), full-length; assay: ELONA; 1 nM: no or slight difference from aptdkk5; conditions: tags: His6; label: biotin
Protocol: as §2
The specificity of 100 nM/i nM of each aptamer/RS against DKK-1 was determined for 24 truncated sequences of aptdkk5 and original aptdkk5 (Table 6) by ELONA and the absorbance at 450 nm was detected. When the concentration was 100 nM, there was no significant difference or slight difference in the absorbance between apt5-1-38, apt5-1-35, apt5-1-62, or apt5-1-59 and the original aptdkk5 (FIG. 8a). When the concentration was 1 nM, there was no significant difference or slight difference in the absorbance between apt5-1-50, apt5-1-47, apt5-1-44, apt5-1-41, apt5-1-38, apt5-1-35, apt5-1-65, apt5-1-62, apt5-1-59, or apt5-1-53 and the original aptdkk5 (FIG. 8b). After the specificity and length of these aptamers were considered, apt5-1-44, apt5-1-41, apt5-1-38, and apt5-1-35 were selected to determine the binding affinity against DKK1.

[8] = label: biotin, G-rich, predicted G4

B1: Aptdkk-3 (ssDNA)
DNA: CGTACGGTCGACGCTAGCTAACTGTCCGACGCGTCTTTCACTTTCTCCCGCCGGGATCCGAGCTCCACGTG
**Q.** Does B1 bind [1]?
**A.** no binding

B2: Apt5-1-38 (Aptdkk5s) (ssDNA)
DNA: CGTACGGTCGACGCTAGCTGGTGGTTGGGGTGGGTGGT
**Q.** Does B2 bind [2]?
**A.** binds

B3: dkk5s-OM-indT (ssDNA)
DNA: B2 DNA
modifications: O-methyl (positions not stated); 3' inverted dT
**Q.** How did the IC50 [3] turn out when B3 was run?
**A.** 383 nM

B4: Apt5-1-59 (ssDNA)
DNA: CGTACGGTCGACGCTAGCTGGTGGTTGGGGTGGGTGGTGGTTGTTCGTGGCCGCGTACG
**Q.** Does B4 bind [4]?
**A.** binds

B5: Apt5-1-44 (ssDNA)
DNA: CGTACGGTCGACGCTAGCTGGTGGTTGGGGTGGGTGGTGGTTGT
**Q.** Does B5 bind [5]?
**A.** binds

B6: Apt5-1-35 (ssDNA)
DNA: CGTACGGTCGACGCTAGCTGGTGGTTGGGGTGGGT
**Q.** Does B6 bind [5]?
**A.** binds

B7: Aptdkk-20 (ssDNA)
DNA: CGTACGGTCGACGCTAGCCGTAGGGAGGTGGGTGGGTATTTCTCTCTGTCGTGGGATCCGAGCTCCACGTG
**Q.** B7 was tested. Which Kd [6] did it give?
**A.** 6.6 nM

**Q.** What about the IC50 [3, 8] of the same binder?
**A.** 1500 nM

B8: Apt5-1-41 (ssDNA)
DNA: CGTACGGTCGACGCTAGCTGGTGGTTGGGGTGGGTGGTGGT
**Q.** Does B8 bind [5]?
**A.** binds

B9: Apt5-1-62 (ssDNA)
DNA: CGTACGGTCGACGCTAGCTGGTGGTTGGGGTGGGTGGTGGTTGTTCGTGGCCGCGTACGGTC
**Q.** Does B9 bind [4]?
**A.** binds

B10: Apt5-1-53 (ssDNA)
DNA: CGTACGGTCGACGCTAGCTGGTGGTTGGGGTGGGTGGTGGTTGTTCGTGGCCG
**Q.** Does B10 bind [7]?
**A.** binds

B11: Apt5-1-65 (ssDNA)
DNA: CGTACGGTCGACGCTAGCTGGTGGTTGGGGTGGGTGGTGGTTGTTCGTGGCCGCGTACGGTCGAC
**Q.** Does B11 bind [7]?
**A.** binds

B12: Aptdkk-5 (ssDNA)
DNA: CGTACGGTCGACGCTAGCTGGTGGTTGGGGTGGGTGGTGGTTGTTCGTGGCCGGGATCCGAGCTCCACGTG
**Q.** Which results are given for B12?
**A.** Kd [6]: 0.3 nM; IC50 [3, 8]: 754 nM
